Data reported in paper PMC10526831, “SUPPRESSOR OF MAX2 LIKE 6, 7, and 8 Interact with DDB1 BINDING WD REPEAT DOMAIN HYPERSENSITIVE TO ABA DEFICIENT 1 to Regulate the Drought Tolerance and Target SUCROSE NONFERMENTING 1 RELATED PROTEIN K”.

T1: GST-SMXL6 (Arabidopsis thaliana, UniProt Q9LML2 1-979)
T1 sequence: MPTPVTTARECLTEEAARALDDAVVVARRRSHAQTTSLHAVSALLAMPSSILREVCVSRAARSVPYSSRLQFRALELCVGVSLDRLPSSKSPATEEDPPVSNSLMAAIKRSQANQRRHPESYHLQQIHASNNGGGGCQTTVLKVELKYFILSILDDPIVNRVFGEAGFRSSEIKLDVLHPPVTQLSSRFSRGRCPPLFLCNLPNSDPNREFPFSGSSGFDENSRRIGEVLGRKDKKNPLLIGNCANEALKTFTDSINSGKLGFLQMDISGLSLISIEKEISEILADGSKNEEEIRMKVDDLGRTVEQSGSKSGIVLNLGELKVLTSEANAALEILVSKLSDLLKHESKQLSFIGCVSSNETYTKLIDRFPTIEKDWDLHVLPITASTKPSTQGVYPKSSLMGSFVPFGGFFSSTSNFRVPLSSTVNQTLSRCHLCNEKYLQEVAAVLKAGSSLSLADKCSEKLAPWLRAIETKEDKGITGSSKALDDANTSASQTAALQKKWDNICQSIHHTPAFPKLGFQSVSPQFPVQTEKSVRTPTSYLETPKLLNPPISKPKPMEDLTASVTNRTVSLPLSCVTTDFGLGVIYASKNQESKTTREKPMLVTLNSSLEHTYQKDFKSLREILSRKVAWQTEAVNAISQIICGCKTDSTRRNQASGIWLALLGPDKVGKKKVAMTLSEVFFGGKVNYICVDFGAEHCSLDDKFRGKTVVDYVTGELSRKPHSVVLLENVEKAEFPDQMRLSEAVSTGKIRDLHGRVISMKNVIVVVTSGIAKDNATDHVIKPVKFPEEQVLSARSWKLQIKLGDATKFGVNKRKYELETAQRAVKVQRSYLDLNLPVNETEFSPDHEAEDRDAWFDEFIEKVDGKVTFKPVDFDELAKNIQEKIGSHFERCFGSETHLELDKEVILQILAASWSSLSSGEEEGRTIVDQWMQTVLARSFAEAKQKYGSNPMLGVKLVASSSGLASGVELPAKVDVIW

T2: GST-SMXL8 (Arabidopsis thaliana, UniProt F4IGZ2 1-910)
T2 sequence: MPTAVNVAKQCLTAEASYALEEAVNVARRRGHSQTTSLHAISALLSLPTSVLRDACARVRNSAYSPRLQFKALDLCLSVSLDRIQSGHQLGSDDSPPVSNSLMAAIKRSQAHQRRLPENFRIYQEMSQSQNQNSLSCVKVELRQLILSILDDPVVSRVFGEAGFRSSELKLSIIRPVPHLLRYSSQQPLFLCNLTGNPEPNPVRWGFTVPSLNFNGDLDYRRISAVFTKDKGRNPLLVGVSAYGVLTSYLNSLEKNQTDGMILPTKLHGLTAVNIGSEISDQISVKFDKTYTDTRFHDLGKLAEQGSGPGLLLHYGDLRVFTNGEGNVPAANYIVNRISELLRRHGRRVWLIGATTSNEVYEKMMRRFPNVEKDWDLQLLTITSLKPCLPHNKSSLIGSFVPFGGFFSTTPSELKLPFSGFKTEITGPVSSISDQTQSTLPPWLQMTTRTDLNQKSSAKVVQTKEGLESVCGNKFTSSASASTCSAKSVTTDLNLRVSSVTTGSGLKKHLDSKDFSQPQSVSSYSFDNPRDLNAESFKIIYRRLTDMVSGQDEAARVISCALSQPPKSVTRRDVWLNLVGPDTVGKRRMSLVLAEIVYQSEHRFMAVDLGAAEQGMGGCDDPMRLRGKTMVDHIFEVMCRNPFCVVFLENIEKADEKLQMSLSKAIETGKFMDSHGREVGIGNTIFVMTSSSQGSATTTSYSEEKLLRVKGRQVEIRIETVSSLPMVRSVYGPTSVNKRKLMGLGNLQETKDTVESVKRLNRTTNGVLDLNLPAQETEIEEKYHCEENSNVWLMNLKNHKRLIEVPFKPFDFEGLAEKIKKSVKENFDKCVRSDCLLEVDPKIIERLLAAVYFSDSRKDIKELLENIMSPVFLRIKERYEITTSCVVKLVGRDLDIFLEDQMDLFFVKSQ

T3: GST-SMXL7 (Arabidopsis thaliana, UniProt O80875 1-1002)
T3 sequence: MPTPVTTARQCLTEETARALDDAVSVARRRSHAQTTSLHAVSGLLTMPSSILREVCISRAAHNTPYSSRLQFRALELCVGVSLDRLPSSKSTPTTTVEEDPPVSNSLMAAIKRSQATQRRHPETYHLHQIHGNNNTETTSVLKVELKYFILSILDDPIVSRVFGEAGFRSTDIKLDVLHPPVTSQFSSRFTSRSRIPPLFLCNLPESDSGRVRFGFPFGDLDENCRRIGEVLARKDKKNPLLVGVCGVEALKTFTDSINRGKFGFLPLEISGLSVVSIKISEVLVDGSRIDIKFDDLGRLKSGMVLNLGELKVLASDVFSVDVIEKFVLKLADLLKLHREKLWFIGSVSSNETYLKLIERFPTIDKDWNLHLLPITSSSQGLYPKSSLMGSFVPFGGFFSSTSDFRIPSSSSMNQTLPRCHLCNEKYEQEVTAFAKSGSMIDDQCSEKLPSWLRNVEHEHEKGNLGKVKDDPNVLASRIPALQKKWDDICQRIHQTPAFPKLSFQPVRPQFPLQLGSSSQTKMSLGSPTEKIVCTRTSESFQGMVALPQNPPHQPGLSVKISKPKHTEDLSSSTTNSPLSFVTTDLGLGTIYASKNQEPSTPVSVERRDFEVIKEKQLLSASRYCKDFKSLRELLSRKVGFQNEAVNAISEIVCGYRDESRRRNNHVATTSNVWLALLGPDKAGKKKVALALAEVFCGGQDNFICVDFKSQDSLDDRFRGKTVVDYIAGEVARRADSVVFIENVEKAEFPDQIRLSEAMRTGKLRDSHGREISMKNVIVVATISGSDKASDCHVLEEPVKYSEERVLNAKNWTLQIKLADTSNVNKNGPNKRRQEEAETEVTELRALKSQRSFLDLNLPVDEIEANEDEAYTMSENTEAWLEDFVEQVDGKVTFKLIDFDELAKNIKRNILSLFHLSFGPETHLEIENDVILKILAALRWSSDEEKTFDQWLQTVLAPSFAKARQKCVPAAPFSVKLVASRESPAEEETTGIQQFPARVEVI

B1: SnRK2.6 promoter p2.6-3-1-1-a (dsDNA)
DNA 1: GACATTTGTGGTAACTTGTTTTTCTTTTATTTTCCGTTTTTAAATGCGGAAACCCTT
DNA 2: AAGGGTTTCCGCATTTAAAAACGGAAAATAAAAGAAAAACAAGTTACCACAAATGTC
B2: SnRK2.3 promoter p2.3-3-1-2-a (dsDNA)
DNA 1: CTTGGGGCAACCAATTATTGCCTTTTTTCTTCCTCTCTTTCCTTATTCGTT
DNA 2: AACGAATAAGGAAAGAGAGGAAGAAAAAAGGCAATAATTGGTTGCCCCAAG

Columns and labels:
Assay in all cases: EMSA; 25x unlabeled probe as competitor; 1 ug protein, 20 uL reaction, room temperature 30 min; 6% native PAGE in 0.5x TBE; binding buffer, salt and pH not given
Details in all cases: protein: recombinant; tags: N-terminal GST (pGEX-6P-1); label: biotin; blunt
GST-SMXL6 = molecular target: T1, GST-SMXL6
GST-SMXL8 = molecular target: T2, GST-SMXL8
GST-SMXL7 = molecular target: T3, GST-SMXL7

Row | Binder | binding result (GST-SMXL6) | binding result (GST-SMXL8) | binding result (GST-SMXL7)
1 | B1 | binds | binds | 
2 | B2 | binds | binds | binds
